Measurements as given in patent US20230103563A1 (Sanofi, published 2023).

B1: protein variant (3), CODV-Fab Split CH2 (anti-IL4/anti-IL13) (bispecific antibody, IgG1)
chain 1: DIVLTQSPASLAVSLGQRATISCRASESVDSYGQSYMHWYQQKAGQPPKLLIYLASNLESGVPARFSGSGSRTDFTLTIDPVQAEDAATYYCQQNAEDSRTFGGGTKLEIKGQPKAAPSDIQMTQSPASLSVSVGDTITLTCHASQNIDVWLSWFQQKPGNIPKLLIYKASNLHTGVPSRFSGSGSGTGFTLTISSLQPEDIATYYCQQAHSYPFTFGGGTKLEIKTKGPSVFRTVAAPSVFIFPPSDEQLKSGTASVVCLLNNFYPREAKVQWKVDNALQSGNSQESVTEQDSKDSTYSLSSTLTLSKADYEKHKVYACEVTHQGLSSPVTKSFNRGECGGPSVFLFPPKPKDTLMISRTPEVTCVVVDVSHEDPEVKFNWYVDGVEVHN
chain 2: QVQLQQSGPELVKPGASVKISCKASGYSFTSYWIHWIKQRPGQGLEWIGMIDPSDGETRLNQRFQGRATLTVDESTSTAYMQLRSPTSEDSAVYYCTRLKEYGNYDSFYFDVWGAGTLVTVSSSEVQLKESGPGLVAPGGSLSITCTVSGFSLTDSSINWVRQPPGKGLEWLGMIWGDGRIDYADALKSRLSISKDSSKSQVFLEMTSLRTDDTATYYCARDGYFPYAMDFWGQGTSVTVSSASTKGPSVFPLAPSSKSTSGGTAALGCLVKDYFPEPVTVSWNSGALTSGVHTFPAVLQSSGLYSLSSVVTVPSSSLGTQTYICNVNHKPSNTKVDKKVEPKSCDKGGGAKTKPREEQYNSTYRVVSVLTVLHQDWLNGKEYKCKVSNKALPAPIEKTISKAKGQPREHHHHHH
notes: Fab-like cross-over format with IgG1 split CH2 domain
B2: protein variant (11), Split CH2 bivalent bispecific antibody (bispecific antibody, human IgG4 S228P, kappa)
heavy: EVQLKESGPGLVAPGGSLSITCTVSGFSLTDSSINWVRQPPGKGLEWLGMIWGDGRIDYADALKSRLSISKDSSKSQVFLEMTSLRTDDTATYYCARDGYFPYAMDFWGQGTSVTVSSASTKGPSVFPLAPCSRSTSESTAALGCLVKDYFPEPVTVSWNSGALTSGVHTFPAVLQSSGLYSLSSVVTVPSSSLGTKTYTCNVDHKPSNTKVDKRVESKYGPPCPPCPAPEFEGGPSVFLFPPKPKDTLMISRTPEVTCVVVDVSQEDPEVQFNWYVDGVEVHNAKTKPREEQFNSTYRVVSVLTVLHQDWLNGKEYKCKVSNKGLPSSIEKTISKAKGQPREPQVCTLPPSRDELTKNQVSLSCAVKGFYPSDIAVEWESNGQPENNYKTTPPVLDSDGSFFLVSKLTVDKSRWQQGNVFSCSVMHEALHNRFTQKSLSLSPG
light: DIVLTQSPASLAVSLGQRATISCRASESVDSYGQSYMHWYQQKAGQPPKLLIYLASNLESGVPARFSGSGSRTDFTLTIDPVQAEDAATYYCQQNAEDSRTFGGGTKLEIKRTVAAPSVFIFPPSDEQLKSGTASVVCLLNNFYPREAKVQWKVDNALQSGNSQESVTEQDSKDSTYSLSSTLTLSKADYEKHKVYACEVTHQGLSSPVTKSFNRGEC
chain 1: QVQLQQSGPELVKPGASVKISCKASGYSFTSYWIHWIKQRPGQGLEWIGMIDPSDGETRLNQRFQGRATLTVDESTSTAYMQLRSPTSEDSAVYYCTRLKEYGNYDSFYFDVWGAGTLVTVSSGGGGGSGGGGGSAKTKPREEQYNSTYRVVSVLTVLHQDWLNGKEYKCKVSNKALPAPIEKTISKAKGQPREGGGSGSAESKYGPPCPPCPAPEFEGGPSVFLFPPKPKDTLMISRTPEVTCVVVDVSQEDPEVQFNWYVDGVEVHNAKTKPREEQFNSTYRVVSVLTVLHQDWLNGKEYKCKVSNKGLPSSIEKTISKAKGQPREPQVYTLPPCRDELTKNQVSLWCLVKGFYPSDIAVEWESNGQPENNYKTTPPVLDSDGSFFLYSKLTVDKSRWQQGNVFSCSVMHEALHNHYTQKSLSLSPG
chain 2: DIQMTQSPASLSVSVGDTITLTCHASQNIDVWLSWFQQKPGNIPKLLIYKASNLHTGVPSRFSGSGSGTGFTLTISSLQPEDIATYYCQQAHSYPFTFGGGTKLEIKGGGGPSVFLFPPKPKDTLMISRTPEVTCVVVDVSHEDPEVKFNWYVDGVEVHN
notes: Four chains; on one arm CH1 and CL are replaced by the split CH2 domain; heavy chains heterodimerize by knob-into-hole mutations
B3: protein variant (12), Split CH2 bivalent bispecific antibody (bispecific antibody, human IgG4 S228P, kappa)
heavy: B2 heavy
light: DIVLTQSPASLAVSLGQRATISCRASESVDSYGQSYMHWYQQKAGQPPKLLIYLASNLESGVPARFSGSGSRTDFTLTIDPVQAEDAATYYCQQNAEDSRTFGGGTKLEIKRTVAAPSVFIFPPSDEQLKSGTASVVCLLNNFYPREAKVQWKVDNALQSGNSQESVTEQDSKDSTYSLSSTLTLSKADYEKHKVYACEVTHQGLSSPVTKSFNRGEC
chain 1: DIQMTQSPASLSVSVGDTITLTCHASQNIDVWLSWFQQKPGNIPKLLIYKASNLHTGVPSRFSGSGSGTGFTLTISSLQPEDIATYYCQQAHSYPFTFGGGTKLEIKGGGGGSGGGGGSAKTKPREEQYNSTYRVVSVLTVLHQDWLNGKEYKCKVSNKALPAPIEKTISKAKGQPREGGGSGSAESKYGPPCPPCPAPEFEGGPSVFLFPPKPKDTLMISRTPEVTCVVVDVSQEDPEVQFNWYVDGVEVHNAKTKPREEQFNSTYRVVSVLTVLHQDWLNGKEYKCKVSNKGLPSSIEKTISKAKGQPREPQVYTLPPCRDELTKNQVSLWCLVKGFYPSDIAVEWESNGQPENNYKTTPPVLDSDGSFFLYSKLTVDKSRWQQGNVFSCSVMHEALHNHYTQKSLSLSPG
chain 2: QVQLQQSGPELVKPGASVKISCKASGYSFTSYWIHWIKQRPGQGLEWIGMIDPSDGETRLNQRFQGRATLTVDESTSTAYMQLRSPTSEDSAVYYCTRLKEYGNYDSFYFDVWGAGTLVTVSSGGGGPSVFLFPPKPKDTLMISRTPEVTCVVVDVSHEDPEVKFNWYVDGVEVHN
notes: as for B2
B4: protein variant (2), DVD-Fab Split CH2 (anti-IL4/anti-IL13) (bispecific antibody, IgG1)
chain 1: DIVLTQSPASLAVSLGQRATISCRASESVDSYGQSYMHWYQQKAGQPPKLLIYLASNLESGVPARFSGSGSRTDFTLTIDPVQAEDAATYYCQQNAEDSRTFGGGTKLEIKGGGGSGGGGSDIQMTQSPASLSVSVGDTITLTCHASQNIDVWLSWFQQKPGNIPKLLIYKASNLHTGVPSRFSGSGSGTGFTLTISSLQPEDIATYYCQQAHSYPFTFGGGTKLEIKRTVAAPSVFIFPPSDEQLKSGTASVVCLLNNFYPREAKVQWKVDNALQSGNSQESVTEQDSKDSTYSLSSTLTLSKADYEKHKVYACEVTHQGLSSPVTKSFNRGECGGPSVFLFPPKPKDTLMISRTPEVTCVVVDVSHEDPEVKFNWYVDGVEVHN
chain 2: EVQLKESGPGLVAPGGSLSITCTVSGFSLTDSSINWVRQPPGKGLEWLGMIWGDGRIDYADALKSRLSISKDSSKSQVFLEMTSLRTDDTATYYCARDGYFPYAMDFWGQGTSVTVSSGGGGSGGGGSQVQLQQSGPELVKPGASVKISCKASGYSFTSYWIHWIKQRPGQGLEWIGMIDPSDGETRLNQRFQGRATLTVDESTSTAYMQLRSPTSEDSAVYYCTRLKEYGNYDSFYFDVWGAGTLVTVSSASTKGPSVFPLAPSSKSTSGGTAALGCLVKDYFPEPVTVSWNSGALTSGVHTFPAVLQSSGLYSLSSVVTVPSSSLGTQTYICNVNHKPSNTKVDKKVEPKSCDKGGGAKTKPREEQYNSTYRVVSVLTVLHQDWLNGKEYKCKVSNKALPAPIEKTISKAKGQPREHHHHHH
notes: Fab-like format with IgG1 split CH2 domain

Columns and labels:
[1] = molecular target: T1, human IL4 (IL004, Millipore) (human, UniProt P05112 25-153); assay: SPR (Biacore), variant captured with Fab-capture kit, IL4 as analyte
T1 construct: Bought protein, used as analyte in SPR; also called interleukin IL4
T1 sequence (looked up): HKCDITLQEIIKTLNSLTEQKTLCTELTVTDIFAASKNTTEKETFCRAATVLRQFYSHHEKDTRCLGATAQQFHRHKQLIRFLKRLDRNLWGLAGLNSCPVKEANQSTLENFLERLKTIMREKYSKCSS
Experimental: (§1) Binding of antigens to the antibody constructs was measured using surface plasmon resonance (SPR) on a BIAcore 3000 instrument (GE Healthcare) with HBS-EP buffer (GE Healthcare). As antigens human IL4 (IL004, Millipore) and human IL13 (IL012, Millipore) were used. The capture antibody (human antibody capture kit, His capture kit, Fab capture kit, GE Life Sciences) was immobilized via primary amine groups (11000 RU) on a research grade CMS chip (GE Life Sciences) using standard procedures. […] The antigens human IL4 and human IL13 were used as analytes and injected for 240 sec with a dissociation time of 300 sec at a flow rate of 30 μL/min. IL4 and IL13 were used in a dilution series of 0.1 nM to 3 nM and 0.8 nM to 25 nM, respectively. Chip surfaces were regenerated with 2 min injects of the regeneration buffer provided with the capture kit. Sensorgrams were double referenced with a blank chip surface and HBS-EP buffer blanks. Recombinant human neonatal Fc-receptor (FcRn) protein was immobilized via primary amine groups (200 RU) in the sample flow cell compartment of a research grade CMS chip (GE Life Sciences) using standard procedures. The reference flow cell compartment was activated and deactivated without FcRn immobilization to generate a blank chip surface. For the analysis an assay buffer with pH 6.0 was used (150 mM NaCl, 20 mM Na-phosphate, 0.05% surfactant P20, pH6.0). The antibody was used as analyte at 800 nM dilution in assay buffer and injected over reference and sample flow cells for 240 sec with a dissociation time of 300 sec at a flow rate of 30 μL/min. Chip surfaces were regenerated with 2 min injects of HBS-EP buffer at 30 μl/min. Sensorgrams were double referenced with a the blank chip surface and HBS-EP buffer blanks. All data analysis was done using the BIAevaluation software v4.1.

[2] = molecular target: T1, human IL4 (IL004, Millipore); assay: SPR (Biacore 3000), construct captured, IL4 as analyte; summary table
Experimental: as §1

[3] = molecular target: T1, human IL4 (IL004, Millipore); assay: SPR (Biacore), variant captured with human antibody capture kit, IL4 as analyte
Experimental: as §1

[4] = molecular target: T1, human IL4 (IL004, Millipore); assay: SPR (Biacore), variant captured with His-capture kit, IL4 as analyte
Experimental: as §1

| Binder | Ka [1] [M⁻¹] | Kd [1] [pM] | koff [1] [s⁻¹] | kon [1] [M⁻¹ s⁻¹] | Kd [2] [pM] | Kd [3] [pM] | koff [3] [s⁻¹] | kon [3] [M⁻¹ s⁻¹] | Ka [4] [M⁻¹] | Kd [4] [pM] | koff [4] [s⁻¹] | kon [4] [M⁻¹ s⁻¹] |
| --- | --- | --- | --- | --- | --- | --- | --- | --- | --- | --- | --- | --- |
| B1 | 1.83e+11 | 5.48 | 0.000452 | 8.26e+07 | 5.48 |  |  |  |  |  |  |  |
| B2 |  |  |  |  | 1.3 | 1.3 | 8.91e-05 | 6.84e+07 |  |  |  |  |
| B3 |  |  |  |  | 0.922 | 0.922 |  |  |  |  |  |  |
| B4 | 5.73e+10 | 17.5 | 0.000259 | 1.48e+07 | 30 |  |  |  | 3.33e+10 | 30 | 0.000426 | 1.42e+07 |
